The first data set concerns the target MBP::FAX-1 (Caenorhabditis elegans) (UniProt G5EDJ0). Briefly: EMSA. As to conditions: EMSA: 1.5 ug MBP::FAX-1, 4 ng 32P ds oligo, BSA, 30 min pre-incubation + 30 min on ice, 8% native PAGE; binding buffer salt and pH not given. In general terms: In EMSA bound probe runs differently from free probe, usually more slowly.
UniProt G5EDJ0, sequence (G5EDJ0 whole entry): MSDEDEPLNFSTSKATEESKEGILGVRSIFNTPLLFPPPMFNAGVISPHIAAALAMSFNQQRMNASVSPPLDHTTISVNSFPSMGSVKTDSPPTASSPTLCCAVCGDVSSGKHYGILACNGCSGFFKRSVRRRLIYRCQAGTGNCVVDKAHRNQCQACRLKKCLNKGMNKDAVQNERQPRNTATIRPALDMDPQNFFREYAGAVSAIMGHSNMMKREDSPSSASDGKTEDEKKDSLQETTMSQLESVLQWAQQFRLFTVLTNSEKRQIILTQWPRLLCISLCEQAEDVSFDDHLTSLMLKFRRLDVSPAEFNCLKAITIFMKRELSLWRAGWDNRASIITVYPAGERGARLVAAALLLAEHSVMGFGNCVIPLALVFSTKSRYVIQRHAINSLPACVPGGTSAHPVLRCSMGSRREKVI
In the case of “AATTACCCTTTTAAAAGTCAAAATTTAACTTCCAA / TCGATTGGAAGTTAAATTTTGACTTTTAAAAGGGT [MON1]”, the binding signal (% probe bound) amounted to 2.8. Regarding “AATTACCCTTTTAAAATTCAAAAGTCAACTTCCAA / TCGATTGGAAGTTGACTTTTGAATTTTAAAAGGGT [HRWS]”, the binding signal (% probe bound) is 10.5. On the same count and under the same terms, the figure for “AATTACCCTTTTAAAATTCAAAATTCAACTTCCAA / TCGATTGGAAGTTGAATTTTGAATTTTAAAAGGGT [DRNC]” is 0.4; for “AATTACCCTTTTAAATGTCAAATGTCAACTTCCAA / TCGATTGGAAGTTGACATTTGACATTTAAAAGGGT [DR1T]” it is 29.8; for “AATTACCCTTTTAAAAGTCAAAATTCAACTTCCAA / TCGATTGGAAGTTGAATTTTGACTTTTAAAAGGGT [HRSW]” it is 11.7. The same measure, in the same setting: the figure for “AATTACCCTTTTAAAATTTAAAAGTCAACTTCCAA / TCGATTGGAAGTTGACTTTTAAATTTTAAAAGGGT [MON2]” is 4.5; for “AATTACCCTTTTAAACGTCAAACGTCAACTTCCAA / TCGATTGGAAGTTGACGTTTGACGTTTAAAAGGGT [DR1C]” it is 26.1. Still for that read-out and setting: the figure for “AATTACCCTTTTAAAAGTCAAAAGTCAACTTCCAA / TCGATTGGAAGTTGACTTTTGACTTTTAAAAGGGT [DR1A]” is 53.3.

The data set is the same for the next values; noted with them: supershift with anti-FAX-1 shown; EMSA: 1.5 ug MBP::FAX-1, 4 ng 32P ds oligo, BSA, 30 min pre-incubation + 30 min on ice, 8% native PAGE; binding buffer salt and pH not given.
Regarding “AATTACCCTTTTAAAGGTCAAAGGTCAACTTCCAA / TCGATTGGAAGTTGACCTTTGACCTTTAAAAGGGT [DR1G]”, the binding signal (% probe bound) came out at 42.1.

The values are drawn from paper PMC2225407.
